Data from patent US7892769B2, “Processing of EphA4 polypeptide by γ-secretase activity” (Eisai R&D Management Co., Ltd., priority 2007, dated 2011).

B1: EICD Δ2: HA-tagged EphA4 intracellular deletion mutant, 622 amino acid-Stop, SEQ ID NO: 170 (protein, listed as Rattus norvegicus)
chain: MDYPYDVPDYATRVDKIEKVIGVGEFGEVCSGRLKVPGKREICVAIKTLKAGYTDKQRRDFLSEASIMGQFDHPNIIHLEGVVTKCKPVMIITEYMENGSLDAFLRKNDGRFTVIQLVGMLRGIGSGMKYLSDMSYVHRDLAARNILVNSNLVCKVSDFGMSRVLEDDPEAAYTTRGGKIPIRWTAPEAIAYRKFTSASDVWSYGIVMWEVMSYGERPYWDMSNQDVIKAIEEGYRLPPPMDCPIALHQLMLDCWQKERSDRPKFGQIVNMLDKLIRNPNSLKRTGPESSRPNTALLDPSSPEFSAVVSVGDWLQAIKMDRYKDNFTAAGYTTLEAVVHMSQDDLARIGITAITHQNKILSSVQAMRTQMQQMHGRMVPV
modifications: HA tag
B2: EICD Δ4: HA-tagged EphA4 intracellular deletion mutant, 701 amino acid-Stop, SEQ ID NO: 174 (protein, listed as Rattus norvegicus)
chain: MDYPYDVPDYATRVDYMENGSLDAFLRKNDGRFTVIQLVGMLRGIGSGMKYLSDMSYVHRDLAARNILVNSNLVCKVSDFGMSRVLEDDPEAAYTTRGGKIPIRWTAPEAIAYRKFTSASDVWSYGIVMWEVMSYGERPYWDMSNQDVIKAIEEGYRLPPPMDCPIALHQLMLDCWQKERSDRPKFGQIVNMLDKLIRNPNSLKRTGPESSRPNTALLDPSSPEFSAVVSVGDWLQAIKMDRYKDNFTAAGYTTLEAVVHMSQDDLARIGITAITHQNKILSSVQAMRTQMQQMHGRMVPV
modifications: HA tag
B3: HA-EICD: rat EphA4 intracellular domain (amino acid 571 to stop) with N-terminal HA tag, SEQ ID NO: 94, expressed by transfection (protein, listed as Rattus norvegicus)
chain: MDYPYDVPDYATRVERRRSKYSQAKQEADEEKHLNQGVRTYVDPFTYEDPNQAVREFAKEIDASCIKIEKVIGVGEFGEVCSGRLKVPGKREICVAIKTLKAGYTDKQRRDFLSEASIMGQFDHPNIIHLEGVVTKCKPVMIITEYMENGSLDAFLRKNDGRFTVIQLVGMLRGIGSGMKYLSDMSYVHRDLAARNILVNSNLVCKVSDFGMSRVLEDDPEAAYTTRGGKIPIRWTAPEAIAYRKFTSASDVWSYGIVMWEVMSYGERPYWDMSNQDVIKAIEEGYRLPPPMDCPIALHQLMLDCWQKERSDRPKFGQIVNMLDKLIRNPNSLKRTGPESSRPNTALLDPSSPEFSAVVSVGDWLQAIKMDRYKDNFTAAGYTTLEAVVHMSQDDLARIGITAITHQNKILSSVQAMRTQMQQMHGRMVPV
modifications: N-terminal HA tag
B4: HA-γ-fragment: γ-secretase-cleaved rat EphA4 intracellular fragment with N-terminal HA tag, SEQ ID NO: 198, expressed by transfection (protein)
chain: MSALLILALVGAAVAGSEFTRVEVTTNTVPSRIIGDGANSTVLLVSVSGSVVLVVILIAAFVISRRRSKYSQAKQEADEEKHLNQGVRTYVDPFTYEDPNQAVREFAKEIDASCIKIEKVIGVGEFGEVCSGRLKVPGKREICVAIKTLKAGYTDKQRRDFLSEASIMGQFDHPNIIHLEGVVTKCKPVMIITEYMENGSLDAFLRKNDGRFTVIQLVGMLRGIGSGMKYLSDMSYVHRDLAARNILVNSNLVCKVSDFGMSRVLEDDPEAAYTTRGGKIPIRWTAPEAIAYRKFTSASDVWSYGIVMWEVMSYGERPYWDMSNQDVIKAIEEGYRLPPPMDCPIALHQLMLDCWQKERSDRPKFGQIVNMLDKLIRNPNSLKRTGPESSRPNTALLDPSSPEFSAVVSVGDWLQAIKMDRYKDNFTAAGYTTLEAVVHMSQDDLARIGITAITHQNKILSSVQAMRTQMQQMHGRMVPVAAAMDYPYDVPDYA
modifications: N-terminal HA tag; synthetic DNA
B5: EICD Δ3: HA-tagged EphA4 intracellular deletion mutant, 661 amino acid-Stop, SEQ ID NO: 172 (protein, listed as Rattus norvegicus)
chain: MDYPYDVPDYATRVDDKQRRDFLSEASIMGQFDHPNIIHLEGVVTKCKPVMIITEYMENGSLDAFLRKNDGRFTVIQLVGMLRGIGSGMKYLSDMSYVHRDLAARNILVNSNLVCKVSDFGMSRVLEDDPEAAYTTRGGKIPIRWTAPEAIAYRKFTSASDVWSYGIVMWEVMSYGERPYWDMSNQDVIKAIEEGYRLPPPMDCPIALHQLMLDCWQKERSDRPKFGQIVNMLDKLIRNPNSLKRTGPESSRPNTALLDPSSPEFSAVVSVGDWLQAIKMDRYKDNFTAAGYTTLEAVVHMSQDDLARIGITAITHQNKILSSVQAMRTQMQQMHGRMVPV
modifications: HA tag
B6: EICD Δ1: HA-tagged EphA4 intracellular deletion mutant, 587 amino acid-Stop, SEQ ID NO: 168 (protein, listed as Rattus norvegicus)
chain: MDYPYDVPDYATRVDKHLNQGVRTYVDPFTYEDPNQAVREFAKEIDASCIKIEKVIGVGEFGEVCSGRLKVPGKREICVAIKTLKAGYTDKQRRDFLSEASIMGQFDHPNIIHLEGVVTKCKPVMIITEYMENGSLDAFLRKNDGRFTVIQLVGMLRGIGSGMKYLSDMSYVHRDLAARNILVNSNLVCKVSDFGMSRVLEDDPEAAYTTRGGKIPIRWTAPEAIAYRKFTSASDVWSYGIVMWEVMSYGERPYWDMSNQDVIKAIEEGYRLPPPMDCPIALHQLMLDCWQKERSDRPKFGQIVNMLDKLIRNPNSLKRTGPESSRPNTALLDPSSPEFSAVVSVGDWLQAIKMDRYKDNFTAAGYTTLEAVVHMSQDDLARIGITAITHQNKILSSVQAMRTQMQQMHGRMVPV
modifications: HA tag

What was measured:
NIH3T3 cells = test: Lamellipodia formation (Rac1 activation indicator) after gene transfer into NIH3T3 cells; assay type: cell-based; conditions: for ratios of lamellipodia forming cells: EICD deletion mutants transfected separately, compared with HA, FIG. 8; for lamellipodia formation promotive capacity: cotransfected with Rac1N17 (dominant negative form of Rac1); for lamellipodia formation promotive capacity / lamellipodia formation: FIG. 6, FIG. 7; for lamellipodia formation: fragment gene transfected alone, vs HA control
Description: In order to examine whether or not EICD produced by γ-secretase is involved in the signaling mechanism of Rho family molecules, and activation of which molecule EICD is involved in, gene transfer into NIH3T3 cells was performed, followed by analysis of the effect of EICD in the rearrangement of actin cytoskeletons in which Rho family molecules are involved. In the rearrangement, the following facts are known: when RhoA is activated, actin fibers called stress fibers are formed at the bottom of cells; when Cdc42 is activated, protrusions called filopodia are formed; when Rac1 is activated, structures called lamellipodia are formed. The effect of EICD was examined with these formations as indicators.
NIH3T3 cells were cultured in 10% CBS (flow)/Antibiotic-Antimycotic (Invitrogen)/DMEM (Invitrogen) under 5% CO2 at 37° C. Genes encoding HA-EICD (SEQ ID NO: 93) or EICD+Rac1N17 (SEQ ID NO: 200) were transfected into the cells with Lipofectamine 2000 (Invitrogen). Eighteen hours later, the cells were replated in wells provided with poly-L-lysin (SIGMA)-coated 13 mm cover glass. Eighteen hours thereafter, the cells were fixed in 2% paraformaldehyde (Wako), treated with 0.25% TritonX-100 and blocked with BlockAce (Snow Brand Milk Products). After the blocking, the cells were treated with rat anti-HA antibody (Roche), followed by reaction with FITC-linked anti-rat IgG antibody (Jackson) and Alexa Fluor phalloidin 546 (Molecular probes).
In the above-mentioned Example 6, the EphA4 fragment used in Example 5 (SEQ ID NO: 197) was transfected instead of the HA-EphA4 intracellular fragment and lamellipodia formation was analyzed in the same way.
Genes encoding HA, HA-EICD (SEQ ID NO: 93) and various EICD mutants (HA-EICD Δ1 to HA-EICD Δ4) prepared in (1) above were transfected to NIH3T3 cells separately in the same manner as described in Examples 6 and 7. Then, ratios of lamellipodia forming cells were examined. In the various EICD mutants described below, capital letters appearing at the 5′ end of the nucleotide sequences represent a nucleotide sequence encoding HA tag. Small letters appearing at the 3′ end represent a nucleotide sequence encoding EphA4 intracellular fragment.

[1] = test system: primary culture of rat hippocampal neurons; test: Spine formation analysis by overexpression of EphA4 fragments in primary culture of rat hippocampal neurons; assay type: cell-based; conditions: fragment gene transfected on day 9 of culture, counted twelve days after gene transfer, GFP-visualized; vs HA control; FIG. 4, FIG. 5
Description: Primary culture of rat hippocampal neurons were cultured in the same manner as described in Example 2. On day 9 of culture, gene transfer experiment was performed using Lipofectamine 2000 (Invitrogen) according to the manual. In order to visualize the morphology of spines, pcDNA3.1Syn1 GFP (SEQ ID NO: 306) was co-transferred into the neurons. Twelve days after the gene transfer, the neurons were fixed with 2% paraformaldehyde, treated with 0.25% TritonX-100 and blocked with BlockAce (Snow Brand Milk). After the blocking, the neurons were treated with rabbit anti-GFP antibody (Invitrogen) and rat anti-HA antibody (Roche); and reacted with FITC-linked anti-rabbit IgG antibody (Jackson), Cy3-linked anti-mouse IgG antibody (Jackson) and Cy5-linked anti-rat IgG antibody (Jackson). […] The spines (protuberances formed on dendrites) which were visualized by the expression of GFP were counted. Image data were quantitatively determined with image analysis software Metamorph (Molecular Devices). pcDNA3.1Syn1 GFP may be obtained by the procedures described below.
In the above-mentioned Example 4, the gene with an HA tag added to its N-terminus (SEQ ID NO:197), which is one of the two cleaved fragments, was transfected instead of the HA-EphA4 intracellular fragment and spine formation was analyzed in the same way based on the cleavage site specified in Example 3.

Row | Molecule | ratios of lamellipodia forming cells (NIH3T3 cells) | lamellipodia formation promotive capacity (NIH3T3 cells) | lamellipodia formation (NIH3T3 cells) | number of spines [1]
1 | B1 | almost the same level as that of HA | – | – | –
2 | B2 | almost the same level as that of HA | – | – | –
3 | B3 | – | disappeared completely | lamellipodia formation is promoted | increases the number of spines
4 | B4 | – | disappeared completely | promotes lamellipodia formation | increases the number of spines
5 | B5 | almost the same level as that of HA | – | – | –
6 | B6 | lamellipodia forming cells are increased | – | – | –
